Assay results taken from patent US8168594B2, “Method for treating celiac disease” (Alba Therapeutics Corporation, priority 2006, dated 2012).

Columns and labels:
rabbit ileal mucosa = conditions: cited from earlier work
[1] = Release from delayed-release particles in Simulated Gastric Fluid (dissolution apparatus, HPLC); format: physicochemical; conditions: delayed-release particles containing 4-6% peptide; SGF containing 0.1% v/v Tween 80K, 37° C.; time course of 60 minutes
Method: (§1) The stability of delayed-release particles containing 4-6% tight junction antagonist peptide (SEQ ID NO: 1) was performed. Delayed-release particles prepared as described above were exposed to Simulated Gastric Fluid (SGF) containing 0.1% v/v Tween 80K under controlled temperature (37° C.±0.5° C.) and agitation in a dissolution apparatus for 1 hour. The beads were removed from the SGF and exposed to Simulated Intestinal Fluid (SIF) containing 0.1% v/v Tween 80K. Samples were pulled from the bath and analyzed by HPLC at 220 nm on a Inertsil ODS-2 HPLC Column (150 mm×3 mm, 5 μm) with an Inertsil ODS-2 HPLC Guard Column (20 mm×4.6 […], 5 μm). Mobile Phase A: 92:8 Water:ACN, 0.1% TFA Mobile Phase B: ACN, 0.1% TFA). The chromatographic conditions are shown below.
(§2) • Run time: 17 min • Detection: 220 nm • Response time: 0.5 sec • Column Temp.: 40° C.±1° C. • Auto Sampler Temp: 10° C.±2° c. • Injection Volume: 5 μl of solution
(§3) The percentage of total tight junction effector released is determined by comparison to a reference standard of the effector.
Simulated Gastric Fluid may be prepared as follows: per liter, place the following into a container: 2.0 gram sodium chloride, 7.0 mL concentrated hydrochloric acid, and 1.0 L water. Stir until completely dissolved. Check the pH and adjust to 1.2±0.1 with dilute HCl or NaOH. De-aerate medium. To this solution Tween 80 was added to 0.1% (v/v). […]

[2] = Release from delayed-release particles in Simulated Intestinal Fluid (dissolution apparatus, HPLC); format: physicochemical; conditions: delayed-release particles containing 4-6% peptide, SIF containing 0.1% v/v Tween 80K, after 1 hour in SGF
Method: as §1, §2, §3
SIF can be prepared as follows: place the following into a container: 1.9 Kg distilled water, 136 g monobasic potassium phosphate, and 18.1 gram of sodium hydroxide. Stir until completely dissolved. Dilute the solution with 18.0 Kg water. Check the pH and adjust to 6.8±0.1 with dilute HCl or NaOH. De-aerated medium. […]

Substance | effect on intestinal permeability (rabbit ileal mucosa) | antagonist peptide released in simulated gastric fluid [1] | antagonist peptide released in simulated intestinal fluid within 15 minutes ([2]; within 15 minutes) | antagonist peptide released in simulated intestinal fluid within 60 minutes ([2]; within 60 minutes)
ZOT: Zonula occludens toxin produced by Vibrio cholerae; tight junction agonist | increased the intestinal permeability | – | – | –
GGVLVQPG [SEQ ID NO:1, tight junction antagonist peptide] | – | less than 8% | Over 90% | essentially all
